From the supplement of paper PMC9732359
± gives the uncertainty stated by the source.

Assay: protein stability index of a GFP-peptide fusion (yeast GPS) (PSI 1-4); higher = more stable; sorted into four equal gates, so the index is relative within each strain
Conditions: doa10∆
Procedure, shortened: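 For each peptide, the protein stability index sums the read frequency in every gate after multiplying it by the gate number. Read frequencies came from plasmids that were PCR-amplified from each gate and Illumina-sequenced, with reads assigned to strains by barcodes. The gates were four equal bins of GFP/Cherry fluorescence ratio applied to mid-log yeast in leucine-free medium carrying a pooled library of tiled 17-residue yeast protein peptides fused downstream of GFP on a Cherry-expressing plasmid.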

| Sequence | protein stability index |
| --- | --- |
| SVLQLIVSEDHIILDTI [MED1] | 2.2 ± 0.17 |
| SVMMQDSPASNEDDLTV [RPO31] | 3.02 ± 0.097 |
| SVQNLDQLLTDLIETSF [NUT1] | 2.9 ± 0.15 |
| SVRGAIVGPDLAVLALV [RPS6A] | 1.18 ± 0.041 |
| SVRKFLEIALFKYRKAR [RPO31] | 2.31 ± 0.12 |
| SVRLFSFLDPLNYGNIC [YJL039C/NUP192] | 1.88 ± 0.053 |
| SVSSPIELNFDAVKDFK [QCR2] | 1.89 ± 0.069 |
| SVTRAGNIISSDKTIVP [SIN4] | 3.01 ± 0.12 |
| SWSNGKITSPIRSVALN [RRP42] | 2.62 ± 0.11 |
| SWSSSAAVIMRCKIYFF [PCI8] | 1.24 ± 0.055 |
| SYANHLEESDVEDTLHV [YOR098C/NUP1] | 2.98 ± 0.082 |
| SYHLWPSFTDEQWITIE [PRP8] | 2.44 ± 0.089 |
| SYLISHKDSFYDRATLT [RPO31] | 2.43 ± 0.073 |
| SYLSETLISRISSLFTI [YML103C/NUP188] | 1.77 ± 0.062 |
| SYSGYDIEDALVLNKSS [RET1] | 2.4 ± 0.059 |
| SYSPTSPSYSPTSPAYS [RPO21] | 3 ± 0.071 |
| SYTAFSRLTLLLRALKT [PRP8] | 1.27 ± 0.042 |
| SYWQKSYFKNSVIVKFH [LIN1] | 2.56 ± 0.041 |
| TAAETFKLFNKYRPETA [RPL8A] | 2.8 ± 0.065 |
| TAAQVANVELTPSNIRS [RPC34] | 2.79 ± 0.1 |
| TAELIKELKEKEAAESP [PUP2] | 2.79 ± 0.058 |
| TAKKDMSSTTPKLESVK [SNF12] | 3.31 ± 0.056 |
| TAKRKSRKRKPKSASNT [IRR1] | 2.97 ± 0.12 |
| TAMKKVEDGNILVFQVS [RPL25] | 2.53 ± 0.049 |
| TAQEINFKMLVLLATWN [IRR1] | 1.84 ± 0.039 |
| TASDQLFGMCESLYEPN [PUP3] | 2.06 ± 0.059 |
| TATTGKRKPAKSSSNRS [RPN4] | 2.68 ± 0.065 |

| Sequence | protein stability index |
| --- | --- |
| TAVNGIDTDLFGAPNNP [YGL172W/NUP49] | 3.1 ± 0.083 |
| TAVVNNAAPANVTGGKA [SWI1] | 2.64 ± 0.038 |
| TCGSKGSTLNVSQMVAV [RPO31] | 3.1 ± 0.13 |
| TCSCCKKTVAGGAYTVS [RPL43A] | 1.65 ± 0.064 |
| TCSYVEEAGSPLVYRHE [RPB9] | 3.06 ± 0.13 |
| TDLENSSLFQEKLLETN [ECM29] | 2.52 ± 0.096 |
| TDLRLSTNGLGMCQLYF [SNU114] | 3.48 ± 0.12 |
| TDNVSMYPSPTGVMIGI [PRP8] | 2.65 ± 0.065 |
| TEAAFTKLDQVWGSETV [RPL4A] | 1.84 ± 0.18 |
| TEKDDNKTNNEDLFDDY [NUT1] | 2.92 ± 0.055 |
| TELVDGRENFVYANNPE [SIR3] | 3.15 ± 0.1 |
| TERVVEIGPSPTLAGMA [FAS2] | 2.501 ± 0.018 |
| TESLRVENSVLIEKVDD [YIL149C/MLP2] | 2.48 ± 0.17 |
| TESVPEPKLFRMRIFAS [RPL20A] | 3.36 ± 0.13 |
| TETEVEREQPQENKNID [SRB4] | 3.42 ± 0.1 |
| TFAKSKNYSRPSTAIHT [SIR4] | 2.03 ± 0.099 |
| TFLLNNKNIDIGLLNKS [RPN2] | 3.38 ± 0.21 |
| TFLSEWGMEPLEDYVPH [RPB2] | 3.17 ± 0.1 |
| TFNNQDKGLLPYAIMET [RPO31] | 1.99 ± 0.067 |
| TFTFTAHMGVLLVLLQD [SWP82] | 1.71 ± 0.044 |
| TGAGAFGTGQSTFGFNN [YJL041W/NSP1] | 2.72 ± 0.055 |
| TGEFDFEAAVKMSDGFN [RPT4] | 2.91 ± 0.15 |
| TGHPKGAAGAWMMNGAL [FAS2] | 1.98 ± 0.069 |
| TGKTLLAKAVAATIGAN [RPT4] | 1.46 ± 0.074 |
| TGKTLLARACAAQTNAT [RPT5] | 2.72 ± 0.13 |
| TGKYGVRYGSSLRRQVK [RPL43A] | 3 ± 0.079 |
| TGMSSMSPFLRKVVKPS [SRB4] | 2.76 ± 0.075 |

| Sequence | protein stability index |
| --- | --- |
| TGSLMGGNSTQNTSNMN [YGR119C/NUP57] | 3.19 ± 0.076 |
| TGYDLSNSVFSPDGRNF [PRE10] | 2.79 ± 0.072 |
| THEDLPKEVDGLEVGPV [IRR1] | 3.21 ± 0.091 |
| THPKDTFYITREKYNMK [ARP9] | 2.98 ± 0.12 |
| TIAKQVLNGQKIVVVRA [RPL16B] | 3.04 ± 0.19 |
| TIFKYLTDKDAFETHYR [CDC53] | 3.27 ± 0.11 |
| TIISPHKDIPEEDFYTV [DSN1] | 3.21 ± 0.095 |
| TIKILPENTAMFNPLHE [YMR129W/POM152] | 2.42 ± 0.064 |
| TIRLWECGTGTTIHTFN [RPN14] | 2.11 ± 0.18 |
| TIRYLMQKQHEMKTQAA [SNF6] | 2.83 ± 0.049 |
| TISVPQIRDVMERFSVL [RRP6] | 2.58 ± 0.094 |
| TITKRNGAFQNSSNLSY [RRP4] | 3.04 ± 0.054 |
| TKDIFPLQNIHVRKVKL [RPS1A] | 2.4 ± 0.084 |
| TKFKGGKRQLMKAVGEY [SEC65] | 2.88 ± 0.098 |
| TKISTLAVKVHGGSRYA [QCR2] | 1.34 ± 0.12 |
| TKLNLHCVIEDDESEQI [RRI1] | 2.2 ± 0.29 |
| TKLTTCKRELAFVKQKN [YIL149C/MLP2] | 1.84 ± 0.078 |
| TKNDAGSKQILKTEAAN [BRR2] | 2.85 ± 0.055 |
| TKPAIRRLARRGGVKRI [HHF1] | 3.04 ± 0.13 |
| TKPSETPATIVKKPTFT [YOR098C/NUP1] | 2.91 ± 0.05 |
| TKSKNKTLIGLQGIVIW [POP4] | 2.93 ± 0.05 |
| TKSSKEFFNTLRKSRET [RRI2] | 2.63 ± 0.15 |
| TKVNNQLIKVAVHNGDR [RPL9B] | 1.92 ± 0.074 |
| TLASLIRYNSVEIQEVP [RPC82] | 2.62 ± 0.073 |
| TLDKKDSIPLRITNSFY [RPN9] | 2.52 ± 0.13 |
| TLDVEAFKSVVSTETFE [RPL27A] | 2.4 ± 0.069 |
| TLEDALRRIITDLNQDS [GRR1] | 2.01 ± 0.074 |

| Sequence | protein stability index |
| --- | --- |
| TLEDKFLLLAVNKYGLR [ISW2] | 2.31 ± 0.058 |
| TLESLENLVVADLESFA [COR1] | 2.47 ± 0.066 |
| TLGNLIRAELLNDRKVL [RPB11] | 3.06 ± 0.17 |
| TLGNQMLSAHNIIESIA [YJR042W/NUP85] | 2.33 ± 0.097 |
| TLLSPKDNGMLIIDGQI [RPO21] | 2.59 ± 0.076 |
| TLNPDLFLYKELVKAHL [RPC82] | 2.71 ± 0.079 |
| TLRKELEQIQVQLKDAN [YIL149C/MLP2] | 2.51 ± 0.1 |
| TLSHLRRTNTPIGRDGK [RPB2] | 2.14 ± 0.043 |
| TLVEIFLERKCVHMVYE [SSN3] | 1.35 ± 0.063 |
| TLVSTDNYFNLQLNEAE [SMX3] | 2.94 ± 0.069 |
| TMGGNAELELVDSLDPF [SMC4] | 3.25 ± 0.1 |
| TMGMRALLKLSVKLKQK [DIS3] | 1.28 ± 0.059 |
| TMQPPYIQERLKSLNDI [MED11] | 2.89 ± 0.086 |
| TNFEILNEMLNTRKNMS [DIS3] | 2.97 ± 0.059 |
| TNFSPTPANNGENAAEK [SNF2] | 2.42 ± 0.067 |
| TNHSAAASTPTTTATPH [PGD1] | 2.91 ± 0.033 |
| TNILISPLNTTTKILGD [YML103C/NUP188] | 2.15 ± 0.058 |
| TNNVLRKLGLLGDKEDE [MTW1] | 2.27 ± 0.048 |
| TNPSSIFGGAGGVPTTS [YOR098C/NUP1] | 1.72 ± 0.066 |
| TNWIIYPLWVMAKQLIR [CSN12] | 1.39 ± 0.11 |
| TPAELVGKFLGYVSSLV [FAS1] | 1.93 ± 0.064 |
| TPEYAAEKVKVRDELRK [UBP6] | 1.28 ± 0.068 |
| TPIIFIGTGEHIHDLEK [SRP54] | 1.94 ± 0.071 |
| TPLTENILIASLMDTLI [YCG1] | 1.86 ± 0.049 |
